Molecular target: T1, FLAG-tagged fragment of CC-afadin (coiled-coil region of afadin, aa 1386-1595) (mouse)
T1 chain: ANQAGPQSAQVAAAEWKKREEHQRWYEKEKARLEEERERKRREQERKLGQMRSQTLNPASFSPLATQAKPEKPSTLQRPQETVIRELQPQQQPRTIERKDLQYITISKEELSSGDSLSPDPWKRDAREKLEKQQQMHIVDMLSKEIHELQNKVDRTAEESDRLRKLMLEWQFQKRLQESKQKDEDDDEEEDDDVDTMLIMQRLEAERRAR
Assay: sucrose density gradient centrifugation

B1: αE-catenin fragment MIII-C (aa 509-906) (domain or fragment)
chain: DDFLAVSENHILEDVNKCVIALQEKDVDGLDRTAGAIRGRAARVIHVVTSEMDNYEPGVYTEKVLEATKLLSNTVMPRFTEQVEAAVEALSSDPAQPMDENEFIDASRLVYDGIRDIRKAVLMIRTPEELDDSDFETEDFDVRSRTSVQTEDDQLIAGQSARAIMAQLPQEQKAKIAEQVASFQEEKSKLDAEVSKWDDSGNDIIVLAKQMCMIMMEMTDFTRGKGPLKNTSDVISAAKKIAEAGSRMDKLGRTIADHCPDSACKQDLLAYLQRIALYCHQLNICSKVKAEVQNLGGELVVSGVDSAMSLIQAAKNLMNAVVQTVKASYVASTKYQKSQGMASLNLPAVSWKMKAPEKKPLVKREKQDETQTKIKRASQKKHVNPVQALSEFKAMDSI
  stoichiometry N: 1
